How the values were obtained:
CUG-BP2 RRM3 wild-type [1] = biological target: T1, CUG-BP2 RRM3 wild-type (UniProt O95319 416-508, Y508W); assay: NMR 15N-HSQC titration; protein mutant series; 20 mM K phosphate pH 5.8, 10 mM NaCl, 0.1% beta-mercaptoethanol, 25 C (NMR titrations and ITC); hnRNP A1: 10 mM Na phosphate pH 6.5, 10 mM beta-mercaptoethanol; conditions: protein: recombinant
CUG-BP2 RRM3 wild-type [2] = biological target: T1, CUG-BP2 RRM3 wild-type; assay: ITC; 20 mM K phosphate pH 5.8, 10 mM NaCl, 0.1% beta-mercaptoethanol, 25 C (NMR titrations and ITC); hnRNP A1: 10 mM Na phosphate pH 6.5, 10 mM beta-mercaptoethanol; conditions: protein: recombinant
CUG-BP2 RRM3 F455A [3] = biological target: T2, CUG-BP2 RRM3 F455A (UniProt O95319 416-508, F455A;Y508W); assay: NMR 15N-HSQC titration; 20 mM K phosphate pH 5.8, 10 mM NaCl, 0.1% beta-mercaptoethanol, 25 C (NMR titrations and ITC); hnRNP A1: 10 mM Na phosphate pH 6.5, 10 mM beta-mercaptoethanol; conditions: protein: recombinant; tags: His-tag (pET28a)
T2 sequence (O95319 416-508 F455A/Y508W): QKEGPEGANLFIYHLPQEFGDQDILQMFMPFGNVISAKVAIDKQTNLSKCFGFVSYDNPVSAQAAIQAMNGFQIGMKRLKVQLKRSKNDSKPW

CUG-BP2 RRM3 F426A = CUG-BP2 RRM3 F426A (UniProt O95319 416-508, F426A;Y508W); assay: as above; conditions: protein: recombinant; tags: His-tag (pET28a)
Chain of CUG-BP2 RRM3 F426A (O95319 416-508 F426A/Y508W): as the sequence (O95319 416-508 F455A/Y508W) above, with F11A, A40F counted along it

CUG-BP2 RRM3 K453A = CUG-BP2 RRM3 K453A (UniProt O95319 416-508, K453A;Y508W); assay: as above; conditions: protein: recombinant; tags: His-tag (pET28a)
Chain of CUG-BP2 RRM3 K453A (O95319 416-508 K453A/Y508W): as the sequence (O95319 416-508 F455A/Y508W) above, with K38A, A40F counted along it

CUG-BP2 RRM3 K499A = CUG-BP2 RRM3 K499A (UniProt O95319 416-508, K499A;Y508W); assay: as above; conditions: protein: recombinant; tags: His-tag (pET28a)
Chain of CUG-BP2 RRM3 K499A (O95319 416-508 K499A/Y508W): as the sequence (O95319 416-508 F455A/Y508W) above, with A40F, K84A counted along it

CUG-BP2 RRM3 Y428A [4] = biological target: T3, CUG-BP2 RRM3 Y428A (UniProt O95319 416-508, Y428A;Y508W); assay: as above; conditions: protein: recombinant; tags: His-tag (pET28a)
T3 sequence (O95319 416-508 Y428A/Y508W): as the sequence (O95319 416-508 F455A/Y508W) above, with Y13A, A40F counted along it

CUG-BP2 RRM3 H429A [5] = biological target: T4, CUG-BP2 RRM3 H429A (UniProt O95319 416-508, H429A;Y508W); assay: as above; conditions: protein: recombinant; tags: His-tag (pET28a)
T4 sequence (O95319 416-508 H429A/Y508W): as the sequence (O95319 416-508 F455A/Y508W) above, with H14A, A40F counted along it

CUG-BP2 RRM3 Q497A = CUG-BP2 RRM3 Q497A (UniProt O95319 416-508, Q497A;Y508W); assay: as above; conditions: protein: recombinant; tags: His-tag (pET28a)
Chain of CUG-BP2 RRM3 Q497A (O95319 416-508 Q497A/Y508W): as the sequence (O95319 416-508 F455A/Y508W) above, with A40F, Q82A counted along it

CUG-BP2 RRM3 K495A = CUG-BP2 RRM3 K495A (UniProt O95319 416-508, K495A;Y508W); assay: as above; conditions: protein: recombinant; tags: His-tag (pET28a)
Chain of CUG-BP2 RRM3 K495A (O95319 416-508 K495A/Y508W): as the sequence (O95319 416-508 F455A/Y508W) above, with A40F, K80A counted along it

CUG-BP2 RRM3 wild-type [6] = biological target: T1, CUG-BP2 RRM3 wild-type; assay: NMR 15N-HSQC titration; 25 C; RNA variant series; 20 mM K phosphate pH 5.8, 10 mM NaCl, 0.1% beta-mercaptoethanol, 25 C (NMR titrations and ITC); hnRNP A1: 10 mM Na phosphate pH 6.5, 10 mM beta-mercaptoethanol; conditions: protein: recombinant
CUG-BP2 RRM3 wild-type [7] = biological target: T1, CUG-BP2 RRM3 wild-type; assay: NMR 15N-HSQC titration; 25 C; multiple registers; 20 mM K phosphate pH 5.8, 10 mM NaCl, 0.1% beta-mercaptoethanol, 25 C (NMR titrations and ITC); hnRNP A1: 10 mM Na phosphate pH 6.5, 10 mM beta-mercaptoethanol; conditions: protein: recombinant
CUG-BP2 RRM3 wild-type [8] = biological target: T1, CUG-BP2 RRM3 wild-type; assay: NMR 15N-HSQC titration; 20 mM K phosphate pH 5.8, 10 mM NaCl, 0.1% beta-mercaptoethanol, 25 C (NMR titrations and ITC); hnRNP A1: 10 mM Na phosphate pH 6.5, 10 mM beta-mercaptoethanol; conditions: protein: recombinant
CUG-BP2 RRM3 F455A [9] = biological target: T2, CUG-BP2 RRM3 F455A; assay: ITC; 25 C; 20 mM K phosphate pH 5.8, 10 mM NaCl, 0.1% beta-mercaptoethanol, 25 C (NMR titrations and ITC); hnRNP A1: 10 mM Na phosphate pH 6.5, 10 mM beta-mercaptoethanol; conditions: protein: recombinant; tags: His-tag (pET28a)
CUG-BP2 RRM3 wild-type [10] = biological target: T1, CUG-BP2 RRM3 wild-type; assay: as above; conditions: protein: recombinant
CUG-BP2 RRM3 Y428A [11] = biological target: T3, CUG-BP2 RRM3 Y428A; assay: as above; conditions: protein: recombinant; tags: His-tag (pET28a)
CUG-BP2 RRM3 H429A [12] = biological target: T4, CUG-BP2 RRM3 H429A; assay: as above; conditions: protein: recombinant; tags: His-tag (pET28a)

T1 sequence (O95319 416-508 Y508W): as the sequence (O95319 416-508 F455A/Y508W) above, with A40F counted along it

B1: UUUAA (ssRNA)
RNA: UUUAA
B1 was tested. Which Kd (CUG-BP2 RRM3 wild-type [1]) did it give?
Its Kd is 62 ± 12 µM.

What about the Kd (CUG-BP2 RRM3 wild-type [2]) of the same binder?
The Kd was 18 µM.

What about the Kd (CUG-BP2 RRM3 F455A [3]) of the same binder?
Its Kd is 41 ± 5 µM.

What about the Kd (CUG-BP2 RRM3 F426A) of the same binder?
Its Kd is 139 ± 10 µM.

What about the Kd (CUG-BP2 RRM3 K453A) of the same binder?
Its Kd is 78 ± 13 µM.

And the Kd (CUG-BP2 RRM3 K499A)?
The Kd was 91 ± 18 µM.

What about the Kd (CUG-BP2 RRM3 Y428A [4]) of the same binder?
Its Kd is 27 ± 3 µM.

And the Kd (CUG-BP2 RRM3 H429A [5])?
Its Kd is 30 ± 4 µM.

What about the Kd (CUG-BP2 RRM3 Q497A) of the same binder?
The Kd was 60 ± 10 µM.

And the Kd (CUG-BP2 RRM3 K495A)?
Its Kd is 63 ± 6 µM.

What about the Kd (CUG-BP2 RRM3 wild-type [6]) of the same binder?
Its Kd is 66 ± 14 µM.

B2: AUUUAAUU (ssRNA)
RNA: AUUUAAUU
With B2 as the binder, how does the Kd (CUG-BP2 RRM3 wild-type [7]) read?
Its Kd is 31 ± 9 µM.

B3: UUUAC (ssRNA)
RNA: UUUAC
For B3, which Kd (CUG-BP2 RRM3 wild-type [8]) is on record?
Its Kd is 56 ± 8 µM.

B4: UUUCA (ssRNA)
RNA: UUUCA
Which Kd (CUG-BP2 RRM3 wild-type [8]) does the source give for B4 here?
The Kd was 73 ± 13 µM.

B5: UGUGU (ssRNA)
RNA: UGUGU
What does the source list for B5?
Kd (CUG-BP2 RRM3 F455A [9]): 10.4 ± 0.87 µM; Kd (CUG-BP2 RRM3 wild-type [10]): 1.04 ± 0.04 µM; Kd (CUG-BP2 RRM3 Y428A [11]): 0.31 ± 0.01 µM; Kd (CUG-BP2 RRM3 H429A [12]): 0.27 ± 0.05 µM

B6: UCUAA (ssRNA)
RNA: UCUAA
B6 was tested. Which Kd (CUG-BP2 RRM3 wild-type [8]) did it give?
The Kd was 76 ± 27 µM.

B7: CUUAA (ssRNA)
RNA: CUUAA
For B7, which Kd (CUG-BP2 RRM3 wild-type [8]) is on record?
Its Kd is 54 ± 9 µM.

B8: UUCAA (ssRNA)
RNA: UUCAA
How did the Kd (CUG-BP2 RRM3 wild-type [8]) turn out when B8 was run?
Its Kd is 56 ± 12 µM.
